# Measurements reported in the supplement of paper PMC7877785.
# ± gives the uncertainty stated by the source.
# Experiment: self-splicing fitness, log relative to wild type (ln ratio); higher = more splicing; Tetrahymena group I intron in knt gene, E. coli kanamycin selection, DiMSum; sequences stand for … in CUCUCU…GGAGGGAAAAGUUAUCAGGCAUGCACCUGGUAGCUAGUCUUUAAACCAAUAGAUUGCAUCGGUUUAAAAGGCAAGACCGUCAAAUUGCGGGAAAGGGGUCAACAGCCGUUCAGUACCAAGUCUCAGGGGAAACUUUGAGAUGGCCUUGCAAAGGGUAUGGUAAUAAGCUGACGGACAUGGUCCUAACCACGCAGCCAAGUCCUAAGUCAACAGAUCUUCUGUUGAUAUGGAUGCAGUUCACAGACUAAAUGUCGGUCGGGGAAGAUGUAUUCUUCUCAUAAGAUAUAGUCGGACCUCUCCUUAAUGGGAGCUAGCGGAUGAAGUGAUGCAACACUGGAGCCGCUGGGAACUAAUUUGUAUGCGAAAGUAUAUUGAUUAGUUUUGGAGUACUCGUGGUCG
# Procedure, shortened: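 Colonies from six replicate transformations of E. coli BL21(DE3) were pooled and amplicon-sequenced on an Illumina HiSeq 2500. The library placed an intron with all eight P1ex-region nucleotides randomised inside the knt kanamycin-resistance gene on pET-22b(+), and cells grew overnight at 37°C or 30°C on LB agar with or without 25 μg/mL kanamycin (plus 100 μg/mL carbenicillin, 50 μM IPTG, 0.2% rhamnose). Fitness is the DiMSum error-weighted combination of wild-type-normalised replicate fold changes, kanamycin versus none.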
Sequence,self-splicing fitness (ln) (30 °C),self-splicing fitness (ln) (37 °C)
UUAUAGCAAUAUUACGGCGC,-0.766 ± 0.18,-0.308 ± 0.17
UUAUAGCAAUAUUACGGGAC,-2.91 ± 0.31,-2.4 ± 0.34
UUAUAGCAAUAUUACGGGGA,-1.89 ± 0.13,-1.38 ± 0.15
UUAUAGCAAUAUUACGGGUA,-2.85 ± 0.2,-1.65 ± 0.19
UUAUAGCAAUAUUACGGGUC,-2.3 ± 0.32,-2.47 ± 0.41
UUAUAGCAAUAUUACGGGUU,-3.8 ± 0.26,-1.13 ± 0.15
UUAUAGCAAUAUUACGGUAA,-1.31 ± 0.17,-0.924 ± 0.17
UUAUAGCAAUAUUACGUACA,-1.06 ± 0.16,-0.0284 ± 0.16
UUAUAGCAAUAUUACGUCUA,-0.963 ± 0.15,-0.336 ± 0.11
UUAUAGCAAUAUUACGUGAC,-3.22 ± 0.22,-0.826 ± 0.22
UUAUAGCAAUAUUACGUGCA,-2.37 ± 0.23,-1.07 ± 0.2
UUAUAGCAAUAUUACGUUAC,-4.01 ± 0.43,-3.56 ± 0.37
UUAUAGCAAUAUUACGUUUA,-2.29 ± 0.16,-0.505 ± 0.12
UUCAAGCAAUAUUACGACAC,-2.8 ± 0.28,-1.39 ± 0.18
UUCAAGCAAUAUUACGAUCA,-0.845 ± 0.082,-0.189 ± 0.093
UUCAAGCAAUAUUACGCAAC,–,-1.43 ± 0.47
UUCAAGCAAUAUUACGCCAG,0.732 ± 0.48,0.119 ± 0.33
UUCAAGCAAUAUUACGCGAA,-3.01 ± 0.18,-1.47 ± 0.13
UUCAAGCAAUAUUACGCUCA,-1.42 ± 0.16,0.0916 ± 0.2
UUCAAGCAAUAUUACGCUUC,-3.09 ± 0.22,-2.8 ± 0.44
UUCAAGCAAUAUUACGGAUG,-2.34 ± 0.14,-1.7 ± 0.14
UUCAAGCAAUAUUACGGCCU,-2.42 ± 0.17,-0.267 ± 0.15
UUCAAGCAAUAUUACGGCGC,-1.42 ± 0.14,-1.47 ± 0.2
UUCAAGCAAUAUUACGGGUU,-2.38 ± 0.12,-0.76 ± 0.12
UUCAAGCAAUAUUACGGUCA,-0.929 ± 0.097,0.00589 ± 0.098
UUCAAGCAAUAUUACGUAAC,–,-2.22 ± 0.42
UUCAAGCAAUAUUACGUAAU,-2.49 ± 0.087,-1.56 ± 0.1

Sequence,self-splicing fitness (ln) (30 °C),self-splicing fitness (ln) (37 °C)
UUCAAGCAAUAUUACGUACU,-1.3 ± 0.13,-0.455 ± 0.15
UUCAAGCAAUAUUACGUGCA,-0.545 ± 0.047,-0.00601 ± 0.065
UUCAAGCAAUAUUACGUGGC,-3.8 ± 0.19,-1.83 ± 0.13
UUCAAGCAAUAUUACGUUAU,-4.39 ± 0.21,-2.3 ± 0.15
UUCCAGCAAUAUUACGAAAC,–,-2.29 ± 0.35
UUCCAGCAAUAUUACGAAGU,–,-1.47 ± 0.32
UUCCAGCAAUAUUACGAUAG,-2.58 ± 0.18,-1.4 ± 0.16
UUCCAGCAAUAUUACGAUAU,-3.13 ± 0.25,-0.723 ± 0.16
UUCCAGCAAUAUUACGAUUU,-2.34 ± 0.088,-0.783 ± 0.1
UUCCAGCAAUAUUACGCAUC,-3.6 ± 0.23,-2.2 ± 0.17
UUCCAGCAAUAUUACGCCAU,-3.3 ± 0.19,-2.82 ± 0.25
UUCCAGCAAUAUUACGCCUU,-2.28 ± 0.1,-0.957 ± 0.096
UUCCAGCAAUAUUACGCUAA,-0.0987 ± 0.083,-0.376 ± 0.084
UUCCAGCAAUAUUACGGAGG,-3.51 ± 0.17,-1.03 ± 0.1
UUCCAGCAAUAUUACGGAGU,-4.4 ± 0.42,–
UUCCAGCAAUAUUACGGCAU,-1.79 ± 0.085,-0.66 ± 0.089
UUCCAGCAAUAUUACGGGGA,–,-2.87 ± 0.29
UUCCAGCAAUAUUACGUAUC,-1.29 ± 0.15,-2.83 ± 0.34
UUCCAGCAAUAUUACGUGCA,-1.44 ± 0.1,-1.11 ± 0.087
UUCCAGCAAUAUUACGUUCC,–,-1.84 ± 0.42
UUCGAGCAAUAUUACGAGCA,-1.41 ± 0.16,-0.946 ± 0.15
UUCGAGCAAUAUUACGAUAC,-3.34 ± 0.23,-3.26 ± 0.26
UUCGAGCAAUAUUACGAUAG,-2.73 ± 0.44,-1.77 ± 0.25
UUCGAGCAAUAUUACGAUUG,–,-2.52 ± 0.34
UUCGAGCAAUAUUACGCGGU,-3.26 ± 0.2,-1.17 ± 0.2
UUCGAGCAAUAUUACGCUAA,-2.91 ± 0.29,-1.61 ± 0.17
UUCGAGCAAUAUUACGCUCA,-2.23 ± 0.25,-1.9 ± 0.29

Sequence,self-splicing fitness (ln) (30 °C),self-splicing fitness (ln) (37 °C)
UUCGAGCAAUAUUACGGACG,-1.8 ± 0.18,-1.42 ± 0.24
UUCGAGCAAUAUUACGGAGC,–,-3.16 ± 0.38
UUCGAGCAAUAUUACGGAGG,-4.27 ± 0.34,-1.47 ± 0.24
UUCGAGCAAUAUUACGGCGG,-1.3 ± 0.095,-0.639 ± 0.12
UUCGAGCAAUAUUACGGGUC,-3.03 ± 0.38,-2.89 ± 0.43
UUCGAGCAAUAUUACGGGUU,-3.21 ± 0.22,-2.78 ± 0.35
UUCGAGCAAUAUUACGUACG,-3.15 ± 0.38,–
UUCGAGCAAUAUUACGUAUC,-3 ± 0.34,-0.649 ± 0.23
UUCGAGCAAUAUUACGUAUG,-2.17 ± 0.13,-2.49 ± 0.19
UUCGAGCAAUAUUACGUCGC,-2.09 ± 0.21,–
UUCGAGCAAUAUUACGUCGU,-3.29 ± 0.33,-1.24 ± 0.21
UUCGAGCAAUAUUACGUCUU,-2.89 ± 0.31,-1.69 ± 0.39
UUCGAGCAAUAUUACGUUUC,-3.44 ± 0.35,-2.37 ± 0.35
UUCUAGCAAUAUUACGAAAA,-1.6 ± 0.14,-0.631 ± 0.13
UUCUAGCAAUAUUACGAAGG,-2.9 ± 0.19,-2.38 ± 0.39
UUCUAGCAAUAUUACGACAG,-1.13 ± 0.22,-1.59 ± 0.32
UUCUAGCAAUAUUACGACCA,-0.559 ± 0.15,-0.269 ± 0.14
UUCUAGCAAUAUUACGAGCG,-0.769 ± 0.066,-0.94 ± 0.072
UUCUAGCAAUAUUACGAGUC,–,-1.86 ± 0.39
UUCUAGCAAUAUUACGAUAU,-2.27 ± 0.34,-1.77 ± 0.3
UUCUAGCAAUAUUACGAUCG,–,-2.02 ± 0.28
UUCUAGCAAUAUUACGCAUA,-0.852 ± 0.12,-0.774 ± 0.14
UUCUAGCAAUAUUACGGAAC,-3.74 ± 0.43,-1.86 ± 0.3
UUCUAGCAAUAUUACGGACA,-0.456 ± 0.097,0.211 ± 0.12
UUCUAGCAAUAUUACGGUGA,-0.462 ± 0.086,-0.28 ± 0.11
